Among the data in the supplement of paper PMC12042874 are amyloid nucleation score values, retold here.

± gives the uncertainty stated by the source.

This data set in a line: amyloid nucleation score (Sup35N fusion, yeast selection) (log enrichment); library NNK2; higher = more nucleation; inactive = no reads after selection. Put shortly: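 Libraries of peptides of 20 random codons fused to Sup35N were expressed in psi-negative yeast and induced 24 hours with 100 μM copper sulfate. Selection was 7 days at 30°C on medium lacking adenine and uracil, and plasmid inserts were Illumina-sequenced before and after selection. Nucleation score is the DiMSum log enrichment of output over input reads, centred on the mode score of non-aggregating sequences, and sequences with under 100 input reads were left out.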
As for QVVFQGLFFYVGCSGHICRY, the amyloid nucleation score is 7.67 ± 0.062.

QWRINSRLFG showed an amyloid nucleation score of -0.266 ± 0.22.

QWTHERSEPWHCSDVRSFIE showed an amyloid nucleation score of 5.757 ± 0.044.

Consider QWVIKFIHRQIVVPFKFAGI, for which the amyloid nucleation score was -0.385 ± 0.8.

QWVVTRDFVE gave an amyloid nucleation score of -0.041 ± 0.63.

The substance QYPDSCS registered an amyloid nucleation score of -0.381 ± 0.79.

Regarding QYVDWLLYGLRDCYWYRRVY, the amyloid nucleation score was found to be 0.192 ± 0.3.

The substance RACFHHIIGDCCYASFN showed an amyloid nucleation score of 8.757 ± 0.05.

RAHVYSSKDP: the amyloid nucleation score was 5.92 ± 0.059.

Regarding RALEIALMLSTTCKSGFRRE, the amyloid nucleation score worked out at 5.56 ± 0.06.

Consider RALVYVWACSVLLDNCTSRH, for which the amyloid nucleation score is -0.935 ± 1.1.

In the case of RANKYVASRFVITFKVACFE, the amyloid nucleation score was 0.092 ± 1.1.

With RAPFLKMCL, the amyloid nucleation score is -1.22 ± 0.75.

With RARPC, the amyloid nucleation score entry is “inactive”.

With RATISLVDMEFSLRDPQ, the amyloid nucleation score entry was “inactive”.

In turn, RATKGAPN came in with an amyloid nucleation score of 0.858 ± 0.28.

As for RAVHARYLL, the amyloid nucleation score worked out at 1.86 ± 0.15.

The substance RAWHPFDGEYNIVFSHIVLK displayed an amyloid nucleation score of -0.525 ± 1.1.

Take RCCFAARMYYGHTLASAVIR: the amyloid nucleation score stood at 1.38 ± 0.3.

Substance RCERWCPWNFHNQAL had an amyloid nucleation score of 0.449 ± 0.51.

The substance RCFMGVA yielded an amyloid nucleation score of 0.276 ± 0.65.

Regarding RCGFNLFTS, the amyloid nucleation score is -0.883 ± 0.76.

In the case of RCLSKVLSLL, the amyloid nucleation score was -1.72 ± 0.54.

The substance RCNIWCHFPVCRAINIMLQA registered an amyloid nucleation score of -0.147 ± 1.1.

In the case of RCRFPVVIKQRDLVKEVMV, the amyloid nucleation score was -0.222 ± 0.46.

In turn, RCRPLCI showed an amyloid nucleation score of -0.299 ± 1.

As to RCSDVTDFNKM, the amyloid nucleation score is 0.122 ± 1.1.

In the case of RCSSRPCDLCVTEWIRRMEG, the amyloid nucleation score was 0.357 ± 0.45.

The substance RDALCVHWVAYIGNKHGWVA yielded an amyloid nucleation score of 0.965 ± 0.17.

Substance RDGLVQMDVVLINVRVEVVC gave an amyloid nucleation score of -0.13 ± 0.76.

Take RDKPPVSKYTSRTREFMLVR: the amyloid nucleation score came to 0.987 ± 0.39.

RDLDY returned an amyloid nucleation score of -1.27 ± 0.75.

Substance RDPSTELMISRLARTESCGT returned an amyloid nucleation score of 4.94 ± 0.065.

Regarding RDQRLCV, the amyloid nucleation score was -1.18 ± 1.1.

On to RDTVFYILSAWNLSAGSRKA, for which the amyloid nucleation score was 3.04 ± 0.089.

RDWRANGSCHESSSGLDM registered an amyloid nucleation score of 1.6 ± 0.34.

Substance REDRNATLCIVV had an amyloid nucleation score of 2.67 ± 0.13.

In turn, REFQWCRSLMRYVRGWLVV gave an amyloid nucleation score of 3.19 ± 0.16.

In turn, RELKCQCLERVLLRVRQCAM gave an amyloid nucleation score of 6.821 ± 0.056.

RELLSLSYSLVMCVVLRV displayed an amyloid nucleation score of 0.734 ± 0.18.

On to RELYYRMAVLNQSTTTLYRG, for which the amyloid nucleation score result is “inactive”.

With RESGLRFNNYMMRWLHGGRV, the amyloid nucleation score was -0.072 ± 0.29.

Regarding RESYMLSYGKILNACQCIVG, the amyloid nucleation score came out at 9.12 ± 0.079.

RFCWAMYNGFPHK came in with an amyloid nucleation score of 4.33 ± 0.059.

For RFCWC, the amyloid nucleation score worked out at 7.365 ± 0.042.

With RFDHMSYRSCPRESEFEVTC, the amyloid nucleation score result was “inactive”.

With RFDINHCIKRCRFGRLVAEI, the amyloid nucleation score turned out to be 3.12 ± 0.1.

RFERISQAKIARTLGLWEML: the amyloid nucleation score is 0.878 ± 0.17.

Regarding RFFGTTFYTAMMTRGFETVT, the amyloid nucleation score is -0.139 ± 0.28.

For RFHELCV, the amyloid nucleation score amounted to 0.998 ± 0.74.

Regarding RFILMNLAIVVDFVGS, the amyloid nucleation score turned out to be 6.92 ± 0.078.

Regarding RFLAN, the amyloid nucleation score result is “inactive”.

For RFLCFLPNNYLFSAGFSLVL, the amyloid nucleation score entry is “inactive”.

The substance RFMFPRTSIVWNASYVVGVL came in with an amyloid nucleation score of 2.92 ± 0.11.

RFMVTTAGRVLPLLSMRGWA returned an amyloid nucleation score of 4.68 ± 0.061.

In turn, RFMWLTLSSFQGLAEGLCTF gave an amyloid nucleation score of -0.631 ± 0.76.

Regarding RFNGN, the amyloid nucleation score was -0.541 ± 1.1.

As to RFRCTTSSLRGLFWPNTWKK, the amyloid nucleation score is -0.301 ± 0.76.

For the substance RFRKSLGALALRRIVGSEAM, the amyloid nucleation score is 1.53 ± 0.39.

The substance RFRRLSIIVILYTASRDLWR showed an amyloid nucleation score of 0.289 ± 0.41.

Take RFSCTKFRGKGLFWMLKCVL: the amyloid nucleation score was -0.835 ± 0.27.

As to RFSLSMDLLNPYST, the amyloid nucleation score worked out at 4.15 ± 0.13.

With RFSVDRSSRELICMLGQFDN, the amyloid nucleation score worked out at 0.356 ± 0.38.

RFTVFRSLKNYSRMHPLIKG gave an amyloid nucleation score of 4.929 ± 0.046.

Substance RFYKSNGPRF gave an amyloid nucleation score of -1.28 ± 0.78.

As to RFYTVSRSRLSGMSMYLCRV, the amyloid nucleation score was -0.294 ± 0.26.

RGERVSPNNGTS showed an amyloid nucleation score of 0.87 ± 0.14.

As to RGGRSVRTVNWPSYMMSVPD, the amyloid nucleation score was -0.076 ± 0.3.

The substance RGGTKRGELCDALNHQFSVL displayed an amyloid nucleation score of 0.413 ± 0.22.

RGRTGRCSAFSQSILNGLRA showed an amyloid nucleation score of -0.181 ± 0.63.

The substance RGSVNCGLFLSRKSDASGRG returned an amyloid nucleation score of 0.234 ± 0.57.

Consider RGVKDRKRQVQFEKSSRSMA, for which the amyloid nucleation score is 0.361 ± 0.21.

As for RHCDLQSRLPSTWYLVRYPC, the amyloid nucleation score was determined as 0.885 ± 0.74.

In the case of RHFMLSSTCPEGMNENGTFS, the amyloid nucleation score came to 0.811 ± 0.51.

Substance RIIYEAC came in with an amyloid nucleation score of -0.865 ± 0.23.

Substance RIMSCNQITNIICVL came in with an amyloid nucleation score of 4.89 ± 0.078.

On to RIQDLMVLTEGYRRDVIGPG, for which the amyloid nucleation score was found to be 0.533 ± 0.56.

On to RISRFCL, for which the amyloid nucleation score is 1.52 ± 0.26.

RISSSGRP came in with an amyloid nucleation score of 2.03 ± 0.082.

Consider RITWFVIFIHCCKGLIR, for which the amyloid nucleation score was -0.369 ± 0.54.

RIVLLLNVYNTREM: the amyloid nucleation score amounted to 5.04 ± 0.1.

Substance RKAMRYVVCDRRPMCYRNSW showed an amyloid nucleation score of 0.752 ± 0.43.

As to RKCSGNAMRSLCSDPVRCVK, the amyloid nucleation score was determined as 0.669 ± 0.32.

Regarding RKMGSFNHLSERVSYHCVWL, the amyloid nucleation score stood at 3.96 ± 0.052.

RKWYGQTSARADVAVS displayed an amyloid nucleation score of 0.232 ± 0.25.

RLAFSKE gave an amyloid nucleation score of -0.065 ± 0.46.

In turn, RLASSIRWTTFSSDGRVRIL displayed an amyloid nucleation score of 0.783 ± 0.57.

Consider RLCRSAPG, for which the amyloid nucleation score was found to be 1.3 ± 0.44.

Turning to RLGIVSSVLVYWLYNYYSVL, the amyloid nucleation score entry is “inactive”.

The substance RLHEYVSLLRGNQRVAHSRS showed an amyloid nucleation score of 3.893 ± 0.037.

In the case of RLHPMRSNI, the amyloid nucleation score was -0.43 ± 0.3.

In the case of RLKCSYTGSALLGRSLGNPE, the amyloid nucleation score turned out to be 0.29 ± 0.54.

As for RLKLMQFLHLAPIVPAILCC, the amyloid nucleation score turned out to be 0.444 ± 0.35.

Turning to RLKMEICDLTFPAQLFQTFG, the amyloid nucleation score was determined as 3.49 ± 0.079.

As to RLLALLGSCYWAGLDVSARI, the amyloid nucleation score came out at 3.36 ± 0.097.

In turn, RLMCVLMGYRGSSGVDCRSA showed an amyloid nucleation score of 0.185 ± 0.27.

For RLNCACFRADTVGDYLGVRL, the amyloid nucleation score is -0.158 ± 0.29.

RLRVVEPGNACWGQMLG returned an amyloid nucleation score of 0.165 ± 1.

RLRVY showed an amyloid nucleation score of -0.781 ± 0.35.

Turning to RLSSHTVMAWVSCNWGDFTV, the amyloid nucleation score was 9.919 ± 0.065.

Take RLSVA: the amyloid nucleation score amounted to 1.24 ± 0.26.

Consider RLTDSSTGDFKNL, for which the amyloid nucleation score was -1.45 ± 0.61.

On to RLTRALLCFTNKALDQCCST, for which the amyloid nucleation score result was “inactive”.

In the case of RLTYCSQFVWTWCCNRAING, the amyloid nucleation score was 9.062 ± 0.024.

On to RLVRVGYLGRKTQRRSCQKL, for which the amyloid nucleation score was 0.686 ± 0.2.

As for RLYHPSQWGDLILCIFVMEA, the amyloid nucleation score was -0.343 ± 0.62.

For RLYPLIVQFFMVCKT, the amyloid nucleation score was found to be 1.48 ± 0.23.

In turn, RLYSFCGIN showed an amyloid nucleation score of 1.68 ± 0.093.

RLYWVGGATGRFD: the amyloid nucleation score came out at 2.02 ± 0.19.

As to RMDGNLQGHDDCVNV, the amyloid nucleation score turned out to be 0.773 ± 0.29.

Substance RMFDYDSGGNNRICYDYYAN had an amyloid nucleation score of -1.69 ± 0.61.

Turning to RMFSIRFMWCFCSRRKPLLG, the amyloid nucleation score entry is “inactive”.

The substance RMKSFLLNFARNSLCVVRHG yielded an amyloid nucleation score of 1.43 ± 0.41.

As to RMLRKSNGS, the amyloid nucleation score was found to be 0.066 ± 0.3.

Turning to RMNGRYNLCTATGLVSASWW, the amyloid nucleation score was 0.09 ± 0.4.

As for RMQVYGDMSKCKDSWFCFRT, the amyloid nucleation score came to 0.703 ± 0.4.

In the case of RMSHWLSYWVDKS, the amyloid nucleation score was found to be 0.938 ± 0.57.

Take RMSRVEWIPHVDFYPTHGLI: the amyloid nucleation score was -0.439 ± 0.63.

Substance RMTSHCMNSLIWQKNHGMRV displayed an amyloid nucleation score of -0.348 ± 0.65.

As to RMWFVNNLDDWFLPTCLWDR, the amyloid nucleation score entry is “inactive”.

Regarding RNCTRFPWSIM, the amyloid nucleation score is 0.131 ± 1.

As to RNEQMSPCITWVNYPDYLRT, the amyloid nucleation score was determined as 0.909 ± 0.6.

Substance RNESHVNLLGFMLDRRPDRG showed an amyloid nucleation score of 4.37 ± 0.071.

RNFGAVAFWVGWHWVVFSVG returned an amyloid nucleation score of -0.588 ± 0.29.

On to RNGLTFRRTYSAYC, for which the amyloid nucleation score turned out to be 1.01 ± 0.25.

As for RNIVDISSNVRCWLGRPAIS, the amyloid nucleation score was found to be 3.27 ± 0.066.

Turning to RNLDNHRTFFSFRIGLFMWS, the amyloid nucleation score is 6.13 ± 0.077.

Take RNLGLMVTILSAELFRRCLW: the amyloid nucleation score is -0.812 ± 0.23.

Substance RNSIYMVTYIMVLDRIA showed an amyloid nucleation score of 6.127 ± 0.046.

Regarding RNSLKARYWWGLSGLLKVW, the amyloid nucleation score was -1.01 ± 0.55.

Regarding RNVGDLMSRGSYYSIPSGNL, the amyloid nucleation score was -1.03 ± 0.41.

Turning to RPASKTMEDGCGLI, the amyloid nucleation score result was “inactive”.

In turn, RPGHYRTWYFSGFYSSPCQT displayed an amyloid nucleation score of 1.49 ± 0.19.

In turn, RPGMARVFNAA came in with an amyloid nucleation score of 0.673 ± 0.36.

Substance RPNAVVFLTDNNVRRSDCWV returned an amyloid nucleation score of -0.639 ± 0.28.

Take RPSSWVVRCE: the amyloid nucleation score is 0.223 ± 0.41.

Substance RPVWDNWLTGFLGMPMWGKT returned an amyloid nucleation score of 0.112 ± 0.43.

Substance RQAKPICCHMVLLDSWPKSM came in with an amyloid nucleation score of 0.164 ± 0.35.

Take RQEINSYGNTPRRGGPRLRH: the amyloid nucleation score is -0.093 ± 0.55.

Turning to RQFLSPNYATECGFQLRVGI, the amyloid nucleation score entry was “inactive”.

RQIALCGLI showed an amyloid nucleation score of 3.47 ± 0.096.
